Results from patent publication US20170319711A1.

Experiments:
[1] = molecular target: Human 5T4 antigen on cells (human) (UniProt Q13641); test: flow cytometry, MDAMB468 cells
[2] = molecular target: Human 5T4 antigen on cells (human) (UniProt Q13641); test: flow cytometry, PC3mm2 cells
[3] = molecular target: Human 5T4 antigen on cells (human) (UniProt Q13641); test: flow cytometry, A431 cells

Measured: Mean Fluorescent Intensity

Chain of Human 5T4 antigen on cells (human) (Q13641 32-420 limits assumed): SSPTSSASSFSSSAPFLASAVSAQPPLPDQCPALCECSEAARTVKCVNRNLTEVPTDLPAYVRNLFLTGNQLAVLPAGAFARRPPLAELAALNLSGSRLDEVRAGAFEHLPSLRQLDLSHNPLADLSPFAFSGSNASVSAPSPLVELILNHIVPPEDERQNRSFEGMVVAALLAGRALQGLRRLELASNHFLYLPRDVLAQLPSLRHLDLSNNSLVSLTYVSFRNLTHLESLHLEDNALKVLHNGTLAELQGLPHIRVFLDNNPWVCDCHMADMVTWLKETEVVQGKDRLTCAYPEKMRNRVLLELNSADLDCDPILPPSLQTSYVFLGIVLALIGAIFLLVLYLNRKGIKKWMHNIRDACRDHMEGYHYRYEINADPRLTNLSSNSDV

IgG control (antibody)
< 100: all assays above
